We go through one molecule from US20060088847A1 (TRUSTEES OF COLUMBIA UNIVERSITY IN THE CITY OF NEW YORK, published 2006).

In the assay the target is in vitro translated 35S-labeled ARF-BP1 (1015-4374) (human, UniProt Q7Z6Z7 1015-4374, 35S-labeled (in vitro translation)). The experiment in a line: GST pull-down with 35S-labeled in vitro translated protein.

B1: GST-C-ARF, the C terminus of ARF (65-132) (other, UniProt Q8N726 65-132, looked up)
chain: GHDDGQRPSGGAAAAPRRGAQLRRPRHSHPTRARRCPGGLPGHAGGAAPGRGAAGRARCLGPSARGPG
notes: range 65-132; also called CARF-(65-132); not shown: glutathione S-transferase (GST) tag of the pGEX vector
B1: the binding result is “no binding”.
